Data on three molecules can be found in patent US20160176943A1 (INSERM INSITITUT NATIONAL DE LA SANTE ET DE LA RECHERCHE …, published 2016).

The target in assay [1] is NKG2D receptor on NK cells (UniProt P26718). The experiment in a line: cell-based or functional assay.
Assay [2] addresses T1, recombinant NKG2D-Fc chimeric protein (UniProt P26718 78-216).
T1 construct: Bought from R&D Systems; also called NKG2D-Fc protein; recombinant NKG2D-Fc chimera protein; not shown: Fc part
T1 sequence (looked up): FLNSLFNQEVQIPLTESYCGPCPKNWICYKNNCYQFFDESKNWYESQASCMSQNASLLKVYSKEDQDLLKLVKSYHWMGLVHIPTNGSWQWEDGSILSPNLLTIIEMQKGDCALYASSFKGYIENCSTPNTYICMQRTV
The experiment in a line: NKG2D-Fc staining of COS transfectants, facs and cellular immunofluorescence. The procedure: FIG. 10. A). MICA-B2 is a novel ligand for the NKG2D receptor. COS cells were transfected with cDNA for WT MICA or MICA isoforms. Forty-eight hours post-transfection cells welle incubated with recombinant NKG2D-Fc chimeric protein. […] Staining was analyzed by fluorescent microscopy and positive signal was converted into black and white picture, positive cells intercating with NKG2D-Fc are shown in black. COS cells transfected with the WT cDNA for MICA are used as positive controls. B) Visualisation of NKG2D binding on MICA-B2 isoform expression analyzed by confocal microscopy on COS-7 transfected cells using a recombinant NKG2D-Fc protein. Transfected cells were detected using an anti-Flag (M2) monoclonal antibody. NKG2D-Fc binding and Flag intracellular detection were achieved 48 h post-transfection before and after cell fixation and permeabilization, respectively. COS cells transfected with the WT cDNA for MICA are used as positive controls. Immunofluorescence staining was obtained using an FITC-labeled secondary antibody and shown in black and white, specific staining appears in white.
To functionally assess a role for the MICA isoforms in immune regulation, the possible interaction of MICA isoforms with NKG2D receptor, the natural receptor of full length MICA, was investigated by facs and by cellular immunofluorescence. […]

For “soluble recombinant isoform MICA-B2 (from UniProt Q29983 24-307) (ligand)”, the NKG2D expression on NK (NKL) cells after overnight incubation with soluble protein, flow cytometry in assay [1] is 47.5%.

B1: MICA-B1 isoform expressed in transfected cells (ligand)
chain: EPHSLRYNLTVLSGDGSVQSGFLAEVHLDGQPFLRCDRQKCRAKPQGQWAEDVLGNKTWDRETRDLTGNGKDLRMTLAHIKDQKEVLQSSDLGHERQEFLEGRCHEDQDTLSRYACRLPAGTTAISKIRRSPEENSAPHGECHPQRGLEGQHYRDMQGFWLLSLEYHTELASGWGKVLVLQSHWQTFHVSAVAAAAAAAAAIFVIIIFYVCCCKKKTSAAEGPELVSLQVLDQHPVGTSDHRDATQLGFQPLMSDLGSTGSTEGA
notes: Alpha1 domain, novel polypeptide region, TM and CYT; also called isoform B1; not shown: C-terminal FLAG tag (three copies of FLAG in 3' from the pCMV-3Tag vector)
With B1, the binding result in assay [2] is reported as “no binding”.

B2: MICA-D isoform expressed on transfected cells (ligand)
chain: EPHSLRYNLTVLSGDGSVQSGFLAEVHLDGQPFLRCDRQKCRAKPQGQWAEDVLGNKTWDRETRDLTGNGKDLRMTLAHIKDQKEGKVLVLQSHWQTFHVSAVAAAAAAAAAIFVIIIFYVCCCKKKTSAAEGPELVSLQVLDQHPVGTSDHRDATQLGFQPLMSDLGSTGSTEGA
notes: also called isoform D; not shown: C-terminal FLAG tag (three copies of FLAG in 3' from the pCMV-3Tag vector)
As for B2, the binding result in assay [2] was “no binding”.
